Measured values reported in US20210047432A1 (DIACCURATE, published 2021).
Values belong to the binder of their own block, whether it stands above or below them.

B3: human FcγRIIA (H131) (receptor, UniProt P12318 34-317, looked up)
chain: QAAAPPKAVLKLEPPWINVLQEDSVTLTCQGARSPESDSIQWFHNGNLIPTHTQPSYRFKANNNDSGEYTCQTGQTSLSDPVHLTVLSEWLVLQTPHLEFQEGETIMLRCHSWKDKPLVKVTFFQNGKSQKFSHLDPTFSIPQANHSHSGDYHCTGNIGYTLFSSKPVTITVQVPSMGSSSPMGIIVAVVIATAVAAIVAAVVALIYCRKKRISANSTDPVKAAQFEPPGRQMIAIRKRQLEETNNDYETADGGYMTLNPRAPTDDDKNIYLTLPPNDHVNSNN
notes: whole, on cells; Allelic variant with His at 131 (mature numbering as printed)
B4: human FcγRIIIB(NA2) (receptor, UniProt O75015 17-200, looked up)
chain: GMRTEDLPKAVVFLEPQWYSVLEKDSVTLKCQGAYSPEDNSTQWFHNESLISSQASSYFIDAATVNDSGEYRCQTNLSTLSDPVQLEVHIGWLLLQAPRWVFKEEDPIHLRCHSWKNTALHKVTYLQNGKDRKYFHHNSDFHIPKATLKDSGSYFCRGLVGSKNVSSETVNITITQGLAVSTIS
notes: whole, on cells
B5: human FcγRIIIB(NA1) (receptor, UniProt O75015 17-200, looked up)
chain: GMRTEDLPKAVVFLEPQWYRVLEKDSVTLKCQGAYSPEDNSTQWFHNENLISSQASSYFIDAATVDDSGEYRCQTNLSTLSDPVQLEVHVGWLLLQAPRWVFKEEDPIHLRCHSWKNTALHKVTYLQNGKDRKYFHHNSDFHIPKATLKDSGSYFCRGLVGSKNVSSETVNITITQGLAVSTIS
notes: whole, on cells
B6: human FcγRIIA(R131) (receptor, UniProt P12318 34-317, looked up)
chain: QAAAPPKAVLKLEPPWINVLQEDSVTLTCQGARSPESDSIQWFHNGNLIPTHTQPSYRFKANNNDSGEYTCQTGQTSLSDPVHLTVLSEWLVLQTPHLEFQEGETIMLRCHSWKDKPLVKVTFFQNGKSQKFSRLDPTFSIPQANHSHSGDYHCTGNIGYTLFSSKPVTITVQVPSMGSSSPMGIIVAVVIATAVAAIVAAVVALIYCRKKRISANSTDPVKAAQFEPPGRQMIAIRKRQLEETNNDYETADGGYMTLNPRAPTDDDKNIYLTLPPNDHVNSNN
notes: whole, on cells; Allelic variant with Arg at 131 (so in the source)
B7: human FcγRIIIB(SH) (receptor, UniProt O75015 17-200, looked up)
chain: GMRTEDLPKAVVFLEPQWYSVLEKDSVTLKCQGAYSPEDNSTQWFHNESLISSQASSYFIDDATVNDSGEYRCQTNLSTLSDPVQLEVHIGWLLLQAPRWVFKEEDPIHLRCHSWKNTALHKVTYLQNGKDRKYFHHNSDFHIPKATLKDSGSYFCRGLVGSKNVSSETVNITITQGLAVSTIS
notes: whole, on cells

Assays:
human FcγRIIA(R131) = target: B6; assay: flow cytometry, monomeric IgG on CHO cells expressing the receptor
Procedure: (§1) Monomeric IgG binding was tested by incubating the #2B, #2B1 and #2B2 antibodies (100 ng/mL) with 1×10⁵ CHO cells stably expressing human FcγRs for 30 min on ice. The cells were then washed, detached, fixed, and analyzed by flow cytometry (FACSCalibur; BD Biosciences).
(§2) The binding of monomeric #2B, #2B1 and #2B2 to human FcγRs was tested by flow cytometry by incubating the mAbs with CHO cells stably expressing human FcγRI, FcγRIIA (H131), FcγRIIA(R131), FcγRIIB, FcγRIIIA(F176), FcγRIIIA(V176), FcγRIIIB(NA1), FcγRIIIB(NA2), and FcγRIIIB(SH), (REF P. Bruhns). As presented in FIG. 9, #2B is binding to hFcγRI and hFcγRIIIA(V176) only, whereas no monomeric binding of #2B1 and #2B2 to all tested hFcγRs was observed. Antibody-antigen immune complex was tested by first incubating the mAb with the antigen and then, incubating the immune complexes formed with CHO cells stably expressing human FcγRs. The immune complexe of #2B is binding to all tested hFcγRs, except hFcγRIIB (FIG. 10). Weak binding is observed for immune complex of #2B1 to hFcγRIIIA(V176) (data not shown), whereas no immune complex binding of #2B2 to any tested hFcγRs (data not shown).

human FcγRIIIA(V176) = target: T1, human FcγRIIIA(V176) (human, UniProt P08637 17-254); assay: as above
T1 construct: whole, on cells; also called hFcγRIIIA(V176)
T1 sequence (P08637 17-254 F176V limits assumed): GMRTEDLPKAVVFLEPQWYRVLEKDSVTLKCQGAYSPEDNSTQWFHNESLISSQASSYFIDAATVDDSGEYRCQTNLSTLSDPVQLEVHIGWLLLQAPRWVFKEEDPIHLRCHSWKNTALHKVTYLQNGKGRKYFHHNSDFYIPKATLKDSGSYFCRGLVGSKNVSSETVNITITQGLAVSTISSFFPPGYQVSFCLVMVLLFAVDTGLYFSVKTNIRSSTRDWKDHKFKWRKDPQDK
Procedure: as §1, §2

human FcγRI = target: T2, human FcγRI (human, UniProt P12314 16-374); assay: as above
T2 construct: whole, on cells; also called hFcγRI
T2 sequence (P12314 16-374): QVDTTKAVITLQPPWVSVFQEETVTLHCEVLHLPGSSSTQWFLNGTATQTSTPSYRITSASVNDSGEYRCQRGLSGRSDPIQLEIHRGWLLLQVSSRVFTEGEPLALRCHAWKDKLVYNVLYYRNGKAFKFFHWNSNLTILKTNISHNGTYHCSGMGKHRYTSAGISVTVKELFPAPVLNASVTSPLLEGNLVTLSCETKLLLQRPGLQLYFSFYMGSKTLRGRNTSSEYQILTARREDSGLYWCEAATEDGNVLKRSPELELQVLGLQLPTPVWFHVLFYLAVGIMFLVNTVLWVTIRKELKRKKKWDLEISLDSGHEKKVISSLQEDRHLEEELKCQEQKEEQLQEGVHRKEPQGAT
Procedure: as §1, §2

human FcγRIIA (H131) = target: B3; assay: as above
Procedure: as §1, §2

human FcγRIIIA(F176) = target: T3, human FcγRIIIA(F176) (human, UniProt P08637 17-254); assay: as above
T3 construct: whole, on cells
T3 sequence (P08637 17-254): as the sequence (P08637 17-254 F176V limits assumed) above, with V160F counted along it
Procedure: as §1, §2

human FcγRIIB = target: T4, human FcγRIIB (human, UniProt P31994 43-310); assay: as above
T4 construct: whole, on cells; also called hFcγRIIB
T4 sequence (looked up): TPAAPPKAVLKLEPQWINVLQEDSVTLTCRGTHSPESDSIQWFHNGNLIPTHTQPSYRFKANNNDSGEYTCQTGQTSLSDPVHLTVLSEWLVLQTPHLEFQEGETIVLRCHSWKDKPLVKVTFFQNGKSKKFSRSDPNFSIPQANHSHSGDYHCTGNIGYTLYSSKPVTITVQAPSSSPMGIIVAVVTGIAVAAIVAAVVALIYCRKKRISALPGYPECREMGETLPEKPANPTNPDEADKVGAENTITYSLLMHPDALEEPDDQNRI
Procedure: as §1, §2

human FcγRIIIB(NA1) = target: B5; assay: as above
Procedure: as §1, §2

human FcγRIIIB(NA2) = target: B4; assay: as above
Procedure: as §1, §2

human FcγRIIIB(SH) = target: B7; assay: as above
Procedure: as §1, §2

[1] = target: T5, recombinant human sPLA2-GIB (mature secreted group IB pancreatic phospholipase A2) (human, UniProt P04054 23-148); assay: SPR (BIAcore 2000), antibody captured, antigen in solution
T5 construct: also called sPLA2-IB; PLA2-GIB mature form
T5 sequence (P04054 23-148): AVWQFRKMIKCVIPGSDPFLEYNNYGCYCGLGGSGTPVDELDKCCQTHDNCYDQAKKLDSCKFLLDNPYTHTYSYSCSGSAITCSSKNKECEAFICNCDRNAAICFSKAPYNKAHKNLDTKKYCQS
Procedure: (§3) The affinity constants (KD) of the pro-sPLA2-GIB and sPLA2-GIB binding to the #2B, #2B1 and #2B2 antibodies were determined by surface kinetics on a real-time biosensor surface plasmon resonance assay (BIAcore™). More specifically, the affinity of the antibodies for human pro-sPLA2-IB and sPLA2-IB was measured using a BIAcore® 2000. The antibody was captured on an anti-mouse IgG surface and exposed to various concentrations of recombinant pro-sPLA2-IB and sPLA2-IB protein. Kinetic analysis using BIAevaluation™ software was performed to obtain the association and dissociation rate constants.
as §3, with “to” for “to the #2B,”, “#2B2” for “#2B2 antibodies”, “(BIAcore™).” for “(BIAcore™). More specifically, the affinity of the antibodies for human pro-sPLA2-IB and sPLA2-IB was measured using a BIAcore® 2000.”, “constants (Table 7).” for “constants.”

[2] = target: T6, recombinant human pro-sPLA2-GIB (human, UniProt P04054 16-148); assay: as above
T6 construct: also called pro-sPLA2-IB; proPLA2-GIB
T6 sequence (P04054 16-148): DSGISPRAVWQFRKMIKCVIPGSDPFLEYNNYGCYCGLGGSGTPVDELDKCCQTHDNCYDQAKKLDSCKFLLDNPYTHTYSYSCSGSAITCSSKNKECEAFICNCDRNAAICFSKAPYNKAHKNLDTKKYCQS
Procedure: as §3
as §3, with “to” for “to the #2B,”, “#2B2” for “#2B2 antibodies”, “(BIAcore™).” for “(BIAcore™). More specifically, the affinity of the antibodies for human pro-sPLA2-IB and sPLA2-IB was measured using a BIAcore® 2000.”, “constants (Table 7).” for “constants.”

[3] = target: T5, recombinant human sPLA2-GIB (mature …); assay: competitive ELISA: constant antibody premixed with dilutions of soluble antigen, free antibody caught on antigen-coated plate
Procedure: (§4) Binding affinities of the humanized antibodies to pro-sPLA2-GIB and sPLA2-GIB were measured by plate-based competition immunoassay. For the competition ELISA, briefly, constant amounts of antibody at different levels were premixed with serial dilutions of antigen protein, human sPLA2-GIB or pro-sPLA2-GIB, ranging from 0 to 10 μg/ml, and incubated for two hours at room temperature to reach pseudo-binding equilibrium between the antibody and antigen. These solutions were then transferred to 96-well sPLA2-GIB or pro-sPLA2-GIB pre-coated plates to allow the free-antibody in the mixtures to bind to plate-coated sPLA2-GIB or pro-sPLA2-GIB. The plates were typically coated with 30 to 100 ng of human sPLA2-GIB or pro-sPLA2-GIB protein in PBS solution overnight at 4° C. followed by BSA nonspecific blocking. After washing off excess antibody in solution, plate-bound antibodies were detected with an HRP-conjugated goat anti-mouse IgG or IgA polyclonal antibody reagent and developed using colorimetric substrate. The dependency of the signals on the concentrations of antigen in solution was analyzed with a 4-parameter fit analysis using Prism™ software (Graph Pad) and reported as IC50.
(§5) The respective binding affinities of the humanized antibodies to human pro-sPLA2-GIB and human sPLA2-GIB were measured by plate-based competition immunoassay. Briefly, constant amounts of antibody at different levels were premixed with serial dilutions of antigen proteins to reach pseudo-binding equilibrium between the antibody and antigen. These solutions were then transferred to antigen pre-coated plates to allow the free-antibody in the mixtures to bind to plate-coated sPLA2-GIB or pro-sPLA2-GIB. Plate-bound antibodies were detected with an HRP-conjugated polyclonal antibody. Data were fitted with a 4PL logistic non-linear regression model and the relative IC50 values were estimated from the model (Table 4).

[4] = target: T6, recombinant human pro-sPLA2-GIB; assay: as above
Procedure: as §4, §5

[5] = target: immune complex of #2B2 with sPLA2-GIB (human, UniProt P04054 23-148); assay: flow cytometry, antibody-antigen immune complex on CHO cells expressing the receptor
Chain of immune complex of #2B2 with sPLA2-GIB (P04054 23-148, one chain of several): as the sequence (P04054 23-148) above
Procedure: Antibody-antigen immune complex were generated by co-incubation of 10 µg/ml of humanized antibodies and 5 μg/ml of sPLA2-GIB for 30 min at 37° C. Immune complexes were then incubated with 1×10⁵ CHO cells stably expressing human FcγRs for 30 min on ice. The cells were then washed, detached, fixed, and analyzed by flow cytometry (FACSCalibur; BD Biosciences).
as §2

binding result (human FcγRIIA(R131)): no binding (tested: 100 ng/mL) | binding result (human FcγRIIIA(V176)): no binding (tested: 100 ng/mL) | binding result (human FcγRI): no binding (tested: 100 ng/mL) | binding result (human FcγRIIA (H131)): no binding (tested: 100 ng/mL) | binding result (human FcγRIIIA(F176)): no binding (tested: 100 ng/mL) | binding result (human FcγRIIB): no binding (tested: 100 ng/mL) | binding result (human FcγRIIIB(NA1)): no binding (tested: 100 ng/mL) | binding result (human FcγRIIIB(NA2)): no binding (tested: 100 ng/mL) | binding result (human FcγRIIIB(SH)): no binding (tested: 100 ng/mL) | Kd [1]: 0.729 nM | koff [1]: 0.00203 s⁻¹ | kon [1]: 2.78e+06 M⁻¹ s⁻¹ | t½ [1]: 5.7 min | Kd [2]: 853 nM | koff [2]: 0.155 s⁻¹ | kon [2]: 181000 M⁻¹ s⁻¹ | t½ [2]: 0.074 min
B1: humanized antibody #2B1 (mutations L234A & L235E) (antibody, human IgG1, kappa)
heavy: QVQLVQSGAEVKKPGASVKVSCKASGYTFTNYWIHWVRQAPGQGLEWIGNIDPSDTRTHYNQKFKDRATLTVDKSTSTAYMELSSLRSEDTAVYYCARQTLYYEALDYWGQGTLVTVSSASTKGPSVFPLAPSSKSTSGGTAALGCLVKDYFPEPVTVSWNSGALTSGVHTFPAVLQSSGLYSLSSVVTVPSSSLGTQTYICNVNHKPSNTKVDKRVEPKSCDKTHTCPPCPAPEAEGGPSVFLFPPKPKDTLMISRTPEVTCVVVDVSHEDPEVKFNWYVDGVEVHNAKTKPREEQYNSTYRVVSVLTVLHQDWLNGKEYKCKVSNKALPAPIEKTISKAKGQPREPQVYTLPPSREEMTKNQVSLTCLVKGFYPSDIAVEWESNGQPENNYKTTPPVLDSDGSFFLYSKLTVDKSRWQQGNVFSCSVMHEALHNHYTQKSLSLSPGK
light: EIVMTQSPATLSVSPGERATLSCKASQDVSTAVAWYQQKPGQAPRLLIYWASTRHTGIPARFSGSRSGTEYTLTISSLQSEDFAVYYCQQDYSTPPTFGGGTKVEIKRTVAAPSVFIFPPSDEQLKSGTASVVCLLNNFYPREAKVQWKVDNALQSGNSQESVTEQDSKDSTYSLSSTLTLSKADYEKHKVYACEVTHQGLSSPVTKSFNRGEC
notes: #2B with L234A and L235E in the heavy chain constant region; also called Ab #2B1; copies: 2 + 2

IC50 [3]: 1.9 nM | IC50 [4]: 216 nM
B2: humanized antibody #2A (antibody, V domains shown)
VH: QVQLVQSGAEVKKPGASVKVSCKASGYTFTNYWIHWVRRAPGQGLEWIGNIDPSDTRTHYNQKFKDRATLTVDKSTSTAYMELSSLRSEDTAVYYCARQTLYYEALDYWGQGTLVTVSS
VL: EIVMTQSPATLSVSPGERATLSCKASQDVSTAVAWYQEKPGQAPRLLIYWASTRHTGIPARFSGSRSGTEYTLTISSLQSEDFAVYYCQQDYSTPPTFGGGTKVEIK
notes: CDR-grafted 14G9; version A keeps Arg H39 and Glu L38; also called Ab #2A

Binder: B3
binding result [5]: no binding

Binder: B4
binding result [5]: no binding

Binder: B5
binding result [5]: no binding

Binder: B6
binding result [5]: no binding

Binder: B7
binding result [5]: no binding
